± gives the half width of the 95% confidence interval.
What was measured:
[1] = folding stability dG unfold from trypsin proteolysis; higher = more stable
Procedure: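 Folding stability of de novo designed mini-proteins (<80 aa, no Cys; designed by TrROS, TrMRF, ProteinMPNN and the joint model) was measured by cDNA display proteolysis with trypsin and chymotrypsin. Each protease was used at 11 concentrations in a threefold dilution series plus a no-protease condition. K50 was inferred by Bayesian fitting of sequencing counts, and dG unfold was derived against a sequence-predicted unfolded-state K50 (Tsuboyama et al. method). Sequences shown include variable-length N-terminal GS-type padding (SAGGSAGG...) inside a display construct carrying a PA tag. Rows were kept only if the AF2 dimer inter-PAE was >15, to exclude likely homo-oligomers.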

[2] = folding stability dG unfold from chymotrypsin proteolysis; higher = more stable
Outline: (§1)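 How resistant each design was to proteolysis was captured as K50, inferred by Bayesian fitting of sequencing counts. Unfolding free energy was then derived relative to a sequence-predicted unfolded-state K50 and a shared folded-state K50, per protease or combined. Digestion used trypsin and chymotrypsin at 11 threefold-diluted concentrations plus a no-protease condition, on mini-proteins under 80 residues without cysteine in a PA-tagged cDNA display construct. Designs were kept only when AlphaFold2 dimer inter-PAE was above 15.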

[3] = folding stability dG unfold (combined trypsin and chymotrypsin); higher = more stable
Outline: as §1

| Sequence | folding stability dG unfold [1] [kcal/mol] | folding stability dG unfold [2] [kcal/mol] | folding stability dG unfold [3] [kcal/mol] |
| --- | --- | --- | --- |
| ENYVAIEITMEMPNPDGMEMKFDLKIIKLDPDDGKFAIEMSMEMENPNGKPYRHPMWFVIPADELKEFLEAS [r1_371_TrROS] | 2.56 ± 0.22 | 4.12 ± 0.12 | 3.54 ± 0.28 |
| GEFVSVESVERLPDGTLVVKIKYKPPSPDTPVTVTVSHPDSSVTFTMDPTSSTITVTVPPSVSDVSVTVVGS [r1_428_JUSTAS] | 2.6 ± 0.1 | 3.58 ± 0.12 | 3.29 ± 0.093 |
| GENVPPKTVTVSAPVDPTTGRVTVNPGNTTVSISLPDGADVTLSFSTSMSEEEQLAFVEKEAAALNAALAAS [r1_25_JUSTAS] | 1.64 ± 0.027 | 0.443 ± 0.055 | 1.18 ± 0.048 |
| GHRIKVNTVHTPSGTFSLTATVRYPDGTTVTYSFNLPSSPNDTFSVSVPESVPLTTVTTSTFQGDTETPTSS [r1_70_JUSTAS] | 1.02 ± 0.044 | 1.69 ± 0.18 | 1.49 ± 0.12 |
| GKYYLVNIVVVNEDNKSLVFPKVFPENDPEKVLEEIKKLLEELGFKAKKLITVFEKLPDGNVLVNAVVEVGS [r1_281_TrMRF] | 3.79 ± 0.15 | 5.63 ± 0.25 | 5.57 ± 0.3 |
| GLEVKVDITVDPVGGGTRIPVTVSVPGRPIAQATADVDPETGVVNLDLGAESEEERKAALEKLKEAGIKLGS [r1_455_JUSTAS] | 1.1 ± 0.049 | 1.42 ± 0.054 | 1.35 ± 0.083 |
| GMPYTVDVVIEEAEDGVIIPIKLSVDGALVAEAVAPVDPVTKKVVIKPGAASKEALDVALEKLKELGIEPGS [r1_455_TrMRF] | -0.487 ± 0.4 | 0.537 ± 0.17 | 0.162 ± 0.26 |
| GMTIVPPSSPVTDSSGNYEEYPDSQLYKDSSTGKPIIAFPMSPEELAAGDPAALARREALAKEYGLPEIEPS [r1_438_JUSTAS] | -0.579 ± 0.35 | 0.0509 ± 0.37 | 0.0139 ± 0.25 |
| GMTVTHTAEAGGRPLTITVTRSPDGWEVTVTDPDGTPIFSKTIPSDKNATLTLTDSAGNPLVTVNITLPPES [r1_34_JUSTAS] | 4.15 ± 0.11 | 3.8 ± 0.046 | 3.91 ± 0.051 |
| GPEVLVETFVDPETGRVVVRVYFPEPDRLVLAVGERGGDGVRVLVVEYEADPLEPRFAEFEFPALPEGFDES [r1_404_TrMRF] | 2.52 ± 0.14 | 2.59 ± 0.054 | 2.44 ± 0.092 |
| GSARFEASAFLAELPFPPQRVLVVLVRGEDGRVRLFVFFPDGSVVEFDLETGRVVRVIDLPDAPLPPGLLES [r1_409_TrMRF] | 2.9 ± 0.071 | 3.63 ± 0.075 | 3.39 ± 0.12 |
| GSSMTVEVSESVVPGTGKKILHVTVTFGGSDPEVARAQALAYVEKETGLPVVSVTVTRAPDSWTVNMTVVGS [r1_337_JUSTAS] | 2.86 ± 0.085 | 2.63 ± 0.032 | 2.81 ± 0.083 |
| IETGEYDIEIELPAPNGYKVKVKFKFVKVDPENGKVYVEVELEVTLPGGKPIKLPLRLVMPAEEIKKFLESS [r1_371_TrMRF] | 2.98 ± 0.072 | 4.94 ± 0.053 | 4.64 ± 0.092 |
| KIEIKVHPDGTLLIKAPLELIDLLIKLLKEKGYDAKILKIDPENGYVLIPVKPKPPPIPKPTPEELLKALFS [r1_78_TrMRF] | 2.29 ± 0.096 | 3.78 ± 0.1 | 3.35 ± 0.2 |
| KKEEEIKKLEEAVREALKKKGLEVKIVEVKKNKNGEYTLTIELKDGKKIEITIKKEKMTVEDILKKLKELLS [r1_279_TrROS_Hall] | 4.13 ± 0.23 | 4.04 ± 0.15 | 4.13 ± 0.18 |
| KKKIKKIEIEIKIPVKSIEEAKEEVEKLAKELKEKFPEIKKIKVEIIKYDEKKGYITVKITIEVNGKKIEFS [r1_52_TrROS_Hall] | 1.56 ± 0.2 | 1.24 ± 0.13 | 1.52 ± 0.28 |
| KKKKKKKKKKKKKEKVKVRIRIRLKVKDKETGEWKEIEVEIEIEMSKEEAEEIAKKLAEKYNFEIVEIEIES [r1_488_TrROS_Hall] | 2.95 ± 0.079 | 3.46 ± 0.19 | 3.28 ± 0.21 |
| KKKYLVLLEARPRLYEFDENGKLIREIPLLVPFIGEGNDPEKVKEAAEKLFGEEVKILEVFPLEEVEEGKIS [r1_493_TrMRF] | 1.85 ± 0.065 | 2.692 ± 0.017 | 2.4 ± 0.072 |
| KLKFKVKIKNPKTNETVEVEVELNEDGTVTVKVNGKLIAKFKIVAKPKPKVETKKVKDANGNEKTYKKVKFS [r1_496_TrROS_Hall] | 1.15 ± 0.12 | 2.41 ± 0.27 | 1.91 ± 0.41 |
| KPKIKITITFNKETGKITITAVNKDNNVVVKTEFELKDGKLTMKIEVKNKKTNKTYTIEIEIKLLKPGEKLS [r1_404_TrROS_Hall] | 2.58 ± 0.19 | 4.32 ± 0.094 | 3.86 ± 0.32 |

Source: the supplement of paper PMC12764529
